Like-named read-outs stand apart in the source and are kept apart here.
B1: His-tagged cynomolgus monkey TfR ectodomain (cyTFRC_89_760; mature protein) (receptor)
chain: CKGVEPKTECERLAGTESPAREEPEEDFPAAPRLYWDDLKRKLSEKLDTTDFTSTIKLLNENLYVPREAGSQKDENLALYIENQFREFKLSKVWRDQHFVKIQVKDSAQNSVIIVDKNGGLVYLVENPGGYVAYSKAATVTGKLVHANFGTKKDFEDLDSPVNGSIVIVRAGKITFAEKVANAESLNAIGVLIYMDQTKFPIVKADLSFFGHAHLGTGDPYTPGFPSFNHTQFPPSQSSGLPNIPVQTISRAAAEKLFGNMEGDCPSDWKTDSTCKMVTSENKSVKLTVSNVLKETKILNIFGVIKGFVEPDHYVVVGAQRDAWGPGAAKSSVGTALLLKLAQMFSDMVLKDGFQPSRSIIFASWSAGDFGSVGATEWLEGYLSSLHLKAFTYINLDKAVLGTSNFKVSASPLLYTLIEKTMQDVKHPVTGRSLYQDSNWASKVEKLTLDNAAFPFLAYSGIPAVSFCFCEDTDYPYLGTTMDTYKELVERIPELNKVARAAAEVAGQFVIKLTHDTELNLDYERYNSQLLLFLRDLNQYRADVKEMGLSLQWLYSARGDFFRATSRLTTDFRNAEKRDKFVMKKLNDRVMRVEYYFLSPYVSPKESPFRHVFWGSGSHTLSALLESLKLRRQNNSAFNETLFRNQLALATWTIQGAANALSGDVWDIDNEF
notes: also called cTfR; cTfR ectodomain

Columns and labels:
[1] = target: T1, anti-TfR 531v25-Fab-FcOL-GAA; assay: SPR, His-tagged TfR ectodomain captured on anti-His, 1:1 fit
T1 construct: Monovalent Fab-FcOL with GAA fused to the C-terminus of the Fc polypeptide
Description: (§1) Binding of the humanized Fab variants to human, cynomolgus and mouse TfR was assessed using SPR at pH 7.4. Experiments were run on a Bruker MASS-2 instrument with HBS-EP+ as running buffer and sample diluent (Cytiva Life Sciences, #BR100826). HCA sensor chips (Bruker, #1862614) were immobilized with anti-His antibody (His capture kit, Cytiva Life Sciences, #28995056) following manufacturer's instructions. About 10,000 RU of anti-His was obtained. His-tagged hTfR ectodomain (SEQ ID NO: 39), cTfR ectodomain (SEQ ID NO: 40) or mouse TfR ectodomain (SEQ ID NO: 41) (5 μg/ml) was captured for 1 min at 10 μL/min. Concentration series of the humanized Fab variants were then injected for 4 min at 30 μL/min over hTfR surfaces and dissociation was monitored for 5 min. Surface was regenerated with one 1 min pulse of 10 mM glycine-HCl at pH 1.5.
(§2) Affinity by SPR was also measured for the 531v25-mAb-GAAx2 molecule (a GAA sequence fused to both HCs).

[2] = target: T2, anti-TfR 531v25-Fab-FcOL-LC-GAA (Homo sapiens (Human), UniProt P0DOX5 223-448 = IgG part); assay: as above
T2 construct: Monovalent Fab-FcOL with GAA fused to the C-terminus of the light chain
Description: as §1, §2

[3] = target: B1; assay: SPR; KD on cTfR against KD on hTfR
Description: as §1

[4] = target: T3, His-tagged human TfR ectodomain (hTFRC_89-760_G142S; mature protein) (human, UniProt P02786 89-760); assay: SPR, His-tagged TfR ectodomain captured on anti-His, 1:1 fit
T3 construct: It carries the G142S haplotype; also called hTfR ectodomain
Description: as §1

[5] = target: B1; assay: as above
Description: as §1

[6] = target: His-tagged mouse TfR ectodomain (mTFRC_89_764; mature protein) (mouse, UniProt Q62351 89-763); assay: SPR, His-tagged mTfR ectodomain captured on anti-His
Description: as §1

[7] = target: T3, His-tagged human TfR ectodomain …; assay: SPR, His-tagged TfR ectodomain captured on anti-His, 1:1 fit; remark: listed apart in the source
Description: as §1
Target sequence in this assay (P02786 89-760 G142S): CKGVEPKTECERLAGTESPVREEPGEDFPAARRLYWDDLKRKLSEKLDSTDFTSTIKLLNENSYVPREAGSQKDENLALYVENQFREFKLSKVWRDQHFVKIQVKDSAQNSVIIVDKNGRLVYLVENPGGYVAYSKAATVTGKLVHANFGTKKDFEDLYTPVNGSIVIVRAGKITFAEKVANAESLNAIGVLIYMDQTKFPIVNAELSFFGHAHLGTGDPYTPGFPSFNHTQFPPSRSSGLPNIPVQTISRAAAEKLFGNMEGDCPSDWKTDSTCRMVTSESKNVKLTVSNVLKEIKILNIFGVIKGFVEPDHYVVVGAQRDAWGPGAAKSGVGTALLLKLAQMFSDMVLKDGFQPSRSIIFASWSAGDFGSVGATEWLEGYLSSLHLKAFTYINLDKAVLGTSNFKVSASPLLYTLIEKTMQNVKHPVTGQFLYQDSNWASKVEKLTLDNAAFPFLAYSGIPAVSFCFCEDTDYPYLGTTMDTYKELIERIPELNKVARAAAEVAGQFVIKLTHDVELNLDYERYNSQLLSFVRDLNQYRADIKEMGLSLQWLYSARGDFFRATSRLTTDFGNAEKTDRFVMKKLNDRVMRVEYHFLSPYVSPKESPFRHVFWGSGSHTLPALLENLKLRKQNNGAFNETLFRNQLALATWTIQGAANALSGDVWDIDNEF

[8] = target: B1; assay: as above
Description: as §1

[9] = target: B1; assay: SPR; KD on cTfR against KD on hTfR
Description: as §1

[10] = target: T1, anti-TfR 531v25-Fab-FcOL-GAA; assay: flow cytometry on TfR-expressing 300.19 cells
[11] = target: T2, anti-TfR 531v25-Fab-FcOL-LC-GAA; assay: flow cytometry on TfR-expressing 300.19 cells

T1 sequence (chain, as listed by the source): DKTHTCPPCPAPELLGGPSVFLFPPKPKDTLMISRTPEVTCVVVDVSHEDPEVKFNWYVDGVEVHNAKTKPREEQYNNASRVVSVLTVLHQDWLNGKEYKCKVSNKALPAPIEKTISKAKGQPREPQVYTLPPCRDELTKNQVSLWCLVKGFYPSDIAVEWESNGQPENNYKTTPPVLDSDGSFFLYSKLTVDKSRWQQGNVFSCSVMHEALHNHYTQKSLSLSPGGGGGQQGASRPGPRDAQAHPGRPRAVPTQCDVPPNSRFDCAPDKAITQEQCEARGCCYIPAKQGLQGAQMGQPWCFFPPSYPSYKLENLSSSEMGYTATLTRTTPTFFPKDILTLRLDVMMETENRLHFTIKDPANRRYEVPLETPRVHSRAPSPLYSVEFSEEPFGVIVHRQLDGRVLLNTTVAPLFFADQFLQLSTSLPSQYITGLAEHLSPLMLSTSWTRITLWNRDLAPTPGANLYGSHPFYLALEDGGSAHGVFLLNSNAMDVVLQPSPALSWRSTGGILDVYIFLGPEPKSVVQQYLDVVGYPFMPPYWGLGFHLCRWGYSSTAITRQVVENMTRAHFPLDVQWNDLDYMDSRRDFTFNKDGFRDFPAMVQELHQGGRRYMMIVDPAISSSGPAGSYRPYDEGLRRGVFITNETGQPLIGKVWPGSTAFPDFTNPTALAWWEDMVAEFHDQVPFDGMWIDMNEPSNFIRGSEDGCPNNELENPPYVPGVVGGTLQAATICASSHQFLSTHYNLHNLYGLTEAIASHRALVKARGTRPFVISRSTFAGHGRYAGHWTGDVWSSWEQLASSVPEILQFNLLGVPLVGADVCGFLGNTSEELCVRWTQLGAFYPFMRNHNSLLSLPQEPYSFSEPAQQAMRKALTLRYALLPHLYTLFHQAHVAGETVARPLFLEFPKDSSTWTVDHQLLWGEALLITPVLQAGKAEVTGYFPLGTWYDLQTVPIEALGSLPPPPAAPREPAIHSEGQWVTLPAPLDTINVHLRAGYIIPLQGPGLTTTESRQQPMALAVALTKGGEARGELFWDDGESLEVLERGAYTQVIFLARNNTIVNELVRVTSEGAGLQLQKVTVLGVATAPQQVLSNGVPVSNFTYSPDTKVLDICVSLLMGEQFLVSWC
Sequence of His-tagged mouse TfR ectodomain (mTFRC_89_764; mature protein) (Q62351 other isoform, or with tags, fused parts or gaps): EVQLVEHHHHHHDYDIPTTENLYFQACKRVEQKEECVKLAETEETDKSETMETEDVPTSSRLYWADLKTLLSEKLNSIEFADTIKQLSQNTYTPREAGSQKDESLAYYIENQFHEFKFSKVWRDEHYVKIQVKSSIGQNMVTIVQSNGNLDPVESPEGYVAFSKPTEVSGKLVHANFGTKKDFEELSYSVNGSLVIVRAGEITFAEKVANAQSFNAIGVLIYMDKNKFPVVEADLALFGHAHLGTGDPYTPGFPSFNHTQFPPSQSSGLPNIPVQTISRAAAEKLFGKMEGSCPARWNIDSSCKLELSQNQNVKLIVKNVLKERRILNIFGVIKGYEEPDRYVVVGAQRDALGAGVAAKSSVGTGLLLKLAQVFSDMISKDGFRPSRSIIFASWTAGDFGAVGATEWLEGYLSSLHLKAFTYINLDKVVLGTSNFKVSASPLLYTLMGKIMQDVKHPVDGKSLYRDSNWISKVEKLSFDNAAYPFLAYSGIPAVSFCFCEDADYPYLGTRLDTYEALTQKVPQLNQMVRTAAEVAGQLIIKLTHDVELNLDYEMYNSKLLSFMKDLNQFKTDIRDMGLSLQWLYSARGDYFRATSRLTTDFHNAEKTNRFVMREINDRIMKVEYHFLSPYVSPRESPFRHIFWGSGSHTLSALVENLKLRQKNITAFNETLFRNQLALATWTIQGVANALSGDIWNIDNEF

## B1
[1]
  Kd: 89 nM
[2]
  Kd: 154 nM

B2: 531v25 Fab (Fab, V domains shown)
VH: QVQLVQSGAEVKKPGASVKVSCKASGYTFTRYYLNWVRQAPGQGLEWIGMIDPSVSETHYAQKFQGRATLTVDKSTSTAYMELSSLRSEDTAVYYCSQIRLPYYYAMDSWGQGTTVTVSS
VL: DIQMTQSPSSLSASVGDRVTITCRASQDISSFLNWYQQKPGKAPKLLIYYTSRLQSGVPSRFSGSGSGTDYTLTISSLQPEDFATYYCQQGNTLPRTFGGGTKVEIKR
notes: The His-tag was removed with TEV protease before SPR
[3]
  Cynomolgus/human KD ratio: 12.4
[4]
  Kd: 4.5 nM
[5]
  Kd: 55.8 nM
[6]
  binding result: no binding
[7]
  Kd: 4.45 nM
[8]
  Kd: 55.8 nM
[9]
  Cynomolgus/human KD ratio: 12.5

B3: cTfR expressed on 300.19 cells (SEQ ID NO: 2) (receptor)
chain: MMDQARSAFSNLFGGEPLSYTRFSLARQVDGDNSHVEMKLGVDEEENTDNNTKANGTKPKRCGGNICYGTIAVIIFFLIGFMIGYLGYCKGVEPKTECERLAGTESPAREEPEEDFPAAPRLYWDDLKRKLSEKLDTTDFTSTIKLLNENLYVPREAGSQKDENLALYIENQFREFKLSKVWRDQHFVKIQVKDSAQNSVIIVDKNGGLVYLVENPGGYVAYSKAATVTGKLVHANFGTKKDFEDLDSPVNGSIVIVRAGKITFAEKVANAESLNAIGVLIYMDQTKFPIVKADLSFFGHAHLGTGDPYTPGFPSFNHTQFPPSQSSGLPNIPVQTISRAAAEKLFGNMEGDCPSDWKTDSTCKMVTSENKSVKLTVSNVLKETKILNIFGVIKGFVEPDHYVVVGAQRDAWGPGAAKSSVGTALLLKLAQMFSDMVLKDGFQPSRSIIFASWSAGDFGSVGATEWLEGYLSSLHLKAFTYINLDKAVLGTSNFKVSASPLLYTLIEKTMQDVKHPVTGRSLYQDSNWASKVEKLTLDNAAFPFLAYSGIPAVSFCFCEDTDYPYLGTTMDTYKELVERIPELNKVARAAAEVAGQFVIKLTHDTELNLDYERYNSQLLLFLRDLNQYRADVKEMGLSLQWLYSARGDFFRATSRLTTDFRNAEKRDKFVMKKLNDRVMRVEYYFLSPYVSPKESPFRHVFWGSGSHTLSALLESLKLRRQNNSAFNETLFRNQLALATWTIQGAANALSGDVWDIDNEF
notes: Murine pre-B cell line 300.19, stably transfected with a plasmid expressing cTfR; also called cynomolgus TfR; cTfR-expressing 300.19 cells
[10]
  binding result: binds
[11]
  binding result: binds
